Laboratory results from the supplement of paper PMC9876800.

Tested on: peptide library, one residue held at a place counted from the S/T acceptor
Experiment: relative phosphorylation of the sub-library (ratio to the mean residue at this position); higher = residue favoured
Conditions: human
In short: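 Relative sub-library phosphorylation, a ratio to the mean residue at that position, was obtained by phosphorimaging and densitometry of spots on streptavidin membranes. Before capture, purified recombinant kinases were incubated for 90 min under kinase-specific conditions with 50 μM biotinylated degenerate peptide sub-libraries and 50 μM ATP spiked with γ-32P-ATP. Each sub-library fixed one residue at one position around a central Ser/Thr.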

NUAK2, construct: Full length, sequence (Q9H093 whole entry, looked up): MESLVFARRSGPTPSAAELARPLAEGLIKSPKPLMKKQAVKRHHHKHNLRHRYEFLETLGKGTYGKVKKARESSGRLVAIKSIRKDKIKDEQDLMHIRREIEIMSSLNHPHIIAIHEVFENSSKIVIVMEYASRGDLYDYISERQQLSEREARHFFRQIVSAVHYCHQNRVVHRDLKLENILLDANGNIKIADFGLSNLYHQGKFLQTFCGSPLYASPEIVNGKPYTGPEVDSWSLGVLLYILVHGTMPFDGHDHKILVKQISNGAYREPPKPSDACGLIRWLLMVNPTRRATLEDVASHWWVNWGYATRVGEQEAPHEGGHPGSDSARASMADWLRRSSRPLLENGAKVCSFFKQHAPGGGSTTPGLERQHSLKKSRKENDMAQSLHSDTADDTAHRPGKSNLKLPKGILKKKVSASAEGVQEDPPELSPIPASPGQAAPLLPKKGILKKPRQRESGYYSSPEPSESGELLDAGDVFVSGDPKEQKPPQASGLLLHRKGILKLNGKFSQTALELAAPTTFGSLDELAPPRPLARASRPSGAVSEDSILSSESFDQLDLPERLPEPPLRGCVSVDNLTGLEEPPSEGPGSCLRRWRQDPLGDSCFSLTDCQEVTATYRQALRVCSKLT

NUAK2, construct: Full length (from UniProt Q9H093)
relative phosphorylation
Conditions	at +1	at +2	at +3	at +4	at -1	at -2	at -3	at -4	at -5
A fixed	0.911	0.916	0.886	0.691	1.22	1.89	0.724	1.15	0.804
D fixed	0.559	0.547	1.29	0.509	0.855	0.865	0.378	0.554	0.385
E fixed	0.598	0.535	0.635	0.498	0.549	0.503	0.514	0.867	0.435
F fixed	1.71	0.654	1.16	0.862	0.705	0.722	0.461	0.764	1.07
G fixed	1.18	1.14	0.712	0.702	1.42	0.979	0.725	0.862	0.603
H fixed	0.898	1.35	1.61	0.907	0.911	0.659	1.01	0.912	0.605
I fixed	0.691	0.99	0.713	2.05	0.45	0.761	0.452	1	2.27
K fixed	1.08	1.66	1.26	1.32	1.44	0.975	2.61	1.59	1.3
L fixed	0.739	0.839	0.705	1.87	0.84	0.528	0.541	0.858	1.73
M fixed	1.24	0.909	0.828	1.55	1.07	0.83	0.73	1.37	1.02
N fixed	1	1.07	1.44	0.74	1.26	2.66	0.566	0.628	0.435
P fixed	0.896	0.727	0.529	0.679	1.42	0.602	0.88	0.86	0.735
Q fixed	1.16	0.745	0.766	0.624	1.09	1.23	0.739	0.954	0.613
R fixed	1.51	2.48	1.69	1.1	1.65	1.23	5.28	1.8	1.66
V fixed	0.763	0.927	0.614	1.07	0.581	1.26	0.443	1.13	1.74
W fixed	0.868	0.717	1.07	0.931	0.557	0.598	0.471	0.837	0.687
Y fixed	1.19	0.785	1.09	0.896	0.962	0.709	0.474	0.856	0.894
pThr fixed	1.13	1.29	0.495	0.708	0.389	0.808	0.725	0.919	0.653
pTyr fixed	0.814	0.59	0.71	0.605	1.03	0.477	0.531	0.602	0.76
